The values that follow come from IntAct's records for PubMed 23386615.

B1: Serine/threonine-protein kinase 4 (Homo sapiens), Q13043 (parent)
chain: METVQLRNPPRRQLKKLDEDSLTKQPEEVFDVLEKLGEGSYGSVYKAIHKETGQIVAIKQVPVESDLQEIIKEISIMQQCDSPHVVKYYGSYFKNTDLWIVMEYCGAGSVSDIIRLRNKTLTEDEIATILQSTLKGLEYLHFMRKIHRDIKAGNILLNTEGHAKLADFGVAGQLTDTMAKRNTVIGTPFWMAPEVIQEIGYNCVADIWSLGITAIEMAEGKPPYADIHPMRAIFMIPTNPPPTFRKPELWSDNFTDFVKQCLVKSPEQRATATQLLQHPFVRSAKGVSILRDLINEAMDVKLKRQESQQREVDQDDEENSEEDEMDSGTMVRAVGDEMGTVRVASTMTDGANTMIEHDDTLPSQLGTMVINAEDEEEEGTMKRRDETMQPAKPSFLEYFEQKEKENQINSFGKSVPGPLKNSSDWKIPQDGDYEFLKSWTVEDLQKRLLALDPMMEQEIEEIRQKYQSKRQPILDAIEAKKRRQQNF
partner: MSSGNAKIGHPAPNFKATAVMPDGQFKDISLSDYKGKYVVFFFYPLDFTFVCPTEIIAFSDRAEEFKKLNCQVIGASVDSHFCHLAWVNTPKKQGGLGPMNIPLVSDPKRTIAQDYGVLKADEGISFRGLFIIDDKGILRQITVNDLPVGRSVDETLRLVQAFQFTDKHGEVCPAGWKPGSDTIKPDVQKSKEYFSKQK
B2: Peroxiredoxin-1 (Homo sapiens), Q06830 (parent)
chain: B1 partner
partner: B1 chain

The variants in one experiment derive from B1. The following applies: with prdx1_human PRDX1, Q06830.
Turning to METVQLRNPPRRQLKKLDEDSLTKQPEEVFDVLEKLGEGSYGSVYKAIHKETGQIVAIRQVPVESDLQEIIKEISIMQQCDSPHVVKYYGSYFKNTDLWIVMEYCGAGSVSDIIRLRNKTLTEDEIATILQSTLKGLEYLHFMRKIHRDIKAGNILLNTEGHAKLADFGVAGQLTDTMAKRNTVIGTPFWMAPEVIQEIGYNCVADIWSLGITAIEMAEGKPPYADIHPMRAIFMIPTNPPPTFRKPELWSDNFTDFVKQCLVKSPEQRATATQLLQHPFVRSAKGVSILRDLINEAMDVKLKRQESQQREVDQDDEENSEEDEMDSGTMVRAVGDEMGTVRVASTMTDGANTMIEHDDTLPSQLGTMVINAEDEEEEGTMKRRDETMQPAKPSFLEYFEQKEKENQINSFGKSVPGPLKNSSDWKIPQDGDYEFLKSWTVEDLQKRLLALDPMMEQEIEEIRQKYQSKRQPILDAIEAKKRRQQNF [K59R], the “effect of a mutation on the interaction” value is recorded as “increasing interaction”.

Variants of B2 are the subject of a further experiment. The following applies: with stk4_human STK4, Q13043.
As for MSSGNAKIGHPAPNFKATAVMPDGQFKDISLSDYKGKYVVFFFYPLDFTFVSPTEIIAFSDRAEEFKKLNCQVIGASVDSHFCHLAWVNTPKKQGGLGPMNIPLVSDPKRTIAQDYGVLKADEGISFRGLFIIDDKGILRQITVNDLPVGRSVDETLRLVQAFQFTDKHGEVSPAGWKPGSDTIKPDVQKSKEYFSKQK [C52S;C173S], the “effect of a mutation on the interaction” value is listed as “decreasing interaction”.
